US20140314744A1 (NEOTOPE BIOSCIENCES, published 2014)
One block for each binder: values may come before it.

Columns and labels:
[1] = molecular target: T1, Recombinant human laminin 511 (Biolamina) (human, UniProt O15230 36-3695; P07942 22-1786; P11047 34-1609); test: SPR (Biacore T200)
T1 construct: Trimer α5β1γ1, bought; negative control

[2] = molecular target: T2, Recombinant human laminin-α4 (R&D systems) (human, UniProt Q16363-2 826-1816); test: SPR (Biacore T200), MCAM IgG1-2A captured by anti-Fc IgG, laminin in solution
T2 construct: also called laminin 4A chain; laminin A4 (α4) chain
T2 sequence (looked up): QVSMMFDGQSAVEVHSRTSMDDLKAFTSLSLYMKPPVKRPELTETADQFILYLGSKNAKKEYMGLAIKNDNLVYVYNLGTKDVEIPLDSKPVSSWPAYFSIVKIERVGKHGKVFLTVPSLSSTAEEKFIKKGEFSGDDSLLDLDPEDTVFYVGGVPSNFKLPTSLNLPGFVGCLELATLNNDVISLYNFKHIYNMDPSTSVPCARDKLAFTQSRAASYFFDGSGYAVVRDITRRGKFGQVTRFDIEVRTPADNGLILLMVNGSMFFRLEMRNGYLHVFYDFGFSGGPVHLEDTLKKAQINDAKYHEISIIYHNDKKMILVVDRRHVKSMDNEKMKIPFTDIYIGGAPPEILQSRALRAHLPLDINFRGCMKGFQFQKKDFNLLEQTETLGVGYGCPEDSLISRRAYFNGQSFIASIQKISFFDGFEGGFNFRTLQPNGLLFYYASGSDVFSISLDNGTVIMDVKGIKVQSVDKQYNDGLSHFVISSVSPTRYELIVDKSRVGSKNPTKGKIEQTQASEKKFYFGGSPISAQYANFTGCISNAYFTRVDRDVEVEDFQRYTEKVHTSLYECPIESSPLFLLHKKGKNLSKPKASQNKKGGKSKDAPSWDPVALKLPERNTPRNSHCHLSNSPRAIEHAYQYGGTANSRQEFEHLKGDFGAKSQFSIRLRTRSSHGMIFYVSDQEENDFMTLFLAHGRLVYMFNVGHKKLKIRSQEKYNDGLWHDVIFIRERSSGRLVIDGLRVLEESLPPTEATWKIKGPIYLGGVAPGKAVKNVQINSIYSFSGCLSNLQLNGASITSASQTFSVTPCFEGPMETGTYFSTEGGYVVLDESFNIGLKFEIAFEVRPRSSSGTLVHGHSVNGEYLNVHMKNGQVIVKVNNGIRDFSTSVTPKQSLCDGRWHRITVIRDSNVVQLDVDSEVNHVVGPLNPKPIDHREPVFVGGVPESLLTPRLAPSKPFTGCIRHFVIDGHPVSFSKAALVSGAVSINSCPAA
Experimental: The binding affinity of the human laminin-α4 to human MCAM IgG1-2A was measured by Surface Plasmon Resonance on a Biacore T200 machine. Human Fc-specific F(ab′)₂ IgG (Jackson Laboratories) was immobilized on a CM5 chip using amine coupling. The four flow cells of the CM5 chips dextran surface are activated by a 7 min injection of freshly prepared 1:1 50 mM NHS: EDC at a flow rate of 5 μl/min. 70 μl IgG solution (pH 4.5) was injected for 3 min to a density of up to 3 000 RU. The coupling is then blocked by a 7 min injection of 1M ethanolamine to deactivate residual reactive sites. Recombinant human Fc-tagged MCAM IgG1-2A in degassed and filtered HBS-P buffer containing 12 mg/ml BSA and 12 mg/ml carboxy-methylated dextran sodium salt was captured by anti-Fc IgG to a capture level 1560 RU. Recombinant human Fc-tagged MCAM IgG1-2A was centrifuged at 14 000 rpm for 5 min at 4° C. before injection for 20 min at a flow rate of 5 μl/min over the anti-Fc IgG containing surface. Flow cell 1 was left free of IgG to serve as a control surface. One flow cell was used to capture recombinant human IgG1 Fc (R&D systems) to serve as a negative control. […] Buffer injections served as negative control. Data evaluation: Data from the buffer injections and the control surface were subtracted to remove artifacts. […]

[3] = molecular target: T3, Murine MCAM domain 1 (Ig1) with human IgG Fc tag (mouse, UniProt Q8R2Y2 24-131, limits assumed); test: ForteBio Octet Red, domains on anti-human IgG Fc biosensors
T3 construct: domain: domain 1 (Ig1); also called MCAM Fc domain 1; not shown: human IgG Fc tag
T3 sequence (looked up): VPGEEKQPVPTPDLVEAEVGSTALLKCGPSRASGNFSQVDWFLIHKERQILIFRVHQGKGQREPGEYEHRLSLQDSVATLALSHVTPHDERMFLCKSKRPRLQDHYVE
Text: (§1) The following protocol was used: ForteBio Domain Mapping Protocol. ForteBio anti-human IgG Fc biosensors were used to immobilize various mouse MCAMhFc domains including full length mouse MCAMhFc protein on to biosensor surface. These sensors were dipped into either clone 15 or 17 MCAM specific antibody for detection of binding to these domains or full length protein. After loading these samples into a black 96 well plate, the Octet Red was programmed as follows: 60 seconds for baseline #1; 180 seconds for loading various domains; 60 seconds for baseline #2; 180 seconds for association of antibody to domain; and 240 seconds for dissociation of antibody from domain.

[4] = molecular target: T4, Murine MCAM domain 1 and 2 (Ig1-2A) with human IgG Fc tag (mouse, UniProt Q8R2Y2 24-244, limits assumed); test: as above
T4 construct: domain: domain 1 and 2 (Ig1-2A); also called MCAM Fc domains 1 and 2; not shown: human IgG Fc tag
T4 sequence (looked up): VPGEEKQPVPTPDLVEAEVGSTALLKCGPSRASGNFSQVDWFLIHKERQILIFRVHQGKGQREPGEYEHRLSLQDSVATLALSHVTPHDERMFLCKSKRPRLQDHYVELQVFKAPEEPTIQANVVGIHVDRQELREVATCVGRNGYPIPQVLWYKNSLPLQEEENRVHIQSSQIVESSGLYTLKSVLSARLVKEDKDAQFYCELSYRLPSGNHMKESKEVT
Text: as §1

[5] = molecular target: T5, Ig2 domain (mouse, UniProt Q8R2Y2); test: ForteBio Octet Red, anti-human IgG Fc biosensor loaded with the Ig2 domain hFc protein, dipped into clone 17 or SP2 media
T5 construct: immunoglobulin domain 2 alone; also called Murine MCAM domain 2 (Ig2)
T5 sequence (Fc fusion chain, looked up): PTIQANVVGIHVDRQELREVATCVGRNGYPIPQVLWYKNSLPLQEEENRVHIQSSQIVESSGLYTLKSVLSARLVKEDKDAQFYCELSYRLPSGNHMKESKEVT
Text: as §1
(§2) For FIG. 10A-B, clones 15 and 17 were tested against the following protein samples (all have human IgG Fc tag): […]

[6] = molecular target: T6, mouse MCAM (full length, on transfected CHO cells) (mouse, UniProt Q8R2Y2 24-648); test: flow cytometry on MCAM transfected cells mixed with CFSE-labelled untransfected cells
T6 construct: whole, on cells; also called murine MCAM; mouse MCAM transfected CHO cells
T6 sequence (looked up): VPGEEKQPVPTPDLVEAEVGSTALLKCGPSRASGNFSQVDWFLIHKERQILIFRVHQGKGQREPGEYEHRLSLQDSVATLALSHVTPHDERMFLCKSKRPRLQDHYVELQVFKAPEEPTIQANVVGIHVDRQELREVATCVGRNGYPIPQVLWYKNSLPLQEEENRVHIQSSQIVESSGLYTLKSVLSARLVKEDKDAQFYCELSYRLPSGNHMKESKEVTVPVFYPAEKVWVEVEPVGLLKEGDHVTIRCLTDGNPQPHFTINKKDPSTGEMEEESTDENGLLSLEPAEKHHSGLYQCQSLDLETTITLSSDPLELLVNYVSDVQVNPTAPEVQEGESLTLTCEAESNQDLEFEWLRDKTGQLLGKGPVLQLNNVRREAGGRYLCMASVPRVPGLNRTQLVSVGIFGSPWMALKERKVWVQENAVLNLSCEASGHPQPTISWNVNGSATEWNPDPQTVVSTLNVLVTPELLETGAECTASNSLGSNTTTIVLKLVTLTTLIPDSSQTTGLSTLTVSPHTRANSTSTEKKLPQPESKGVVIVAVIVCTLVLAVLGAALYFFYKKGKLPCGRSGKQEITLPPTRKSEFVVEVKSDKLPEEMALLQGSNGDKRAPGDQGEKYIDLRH
Experimental: (§3) MCAM-Fc was generated by fusing the extracellular domain of murine MCAM to human IgG and produced in CHO cells using standard techniques. Lou/M rats were immunized with 100 μg of MCAM-Fc protein in CFA (1:1 volume). Rats were boosted two times at two week intervals with MCAM-Fc protein in incomplete Freund's adjuvant (IFA) (1:1 volume). Hybridomas were generated from immunized rats using standard protocols and clones were selected by Clonepix. CHO cells were transfected with the full length murine MCAM gene and selected for stable expression using neomycin and standard techniques. Parental CHO cells (MCAM negative) were fluorescently labeled with carboxyfluorescein succinimidyl ester (CFSE) using standard techniques and mixed at a 1:1 ratio with unlabeled MCAM transfected CHO cells. Hybridoma supernatants were incubated with this mixture of cells for 30 minutes and binding of potential MCAM specific antibodies was detected with a fluorescently labeled anti-rat secondary antibody (Jackson Immuno) by flow cytometry.
(§4) Monoclonal antibodies against mouse MCAM were generated as described in Materials and Methods above. The specific binding between the monoclonal antibody and MCAM was confirmed by assessing the monoclonal antibody's ability to bind to cells transfected with either mouse or human MCAM. For this, untransfected cells were labeled with carboxyfluorescein succinimidyl ester (CFSE) and mixed with unlabeled MCAM transfected cells. Untransfected cells (in blue) could therefore be differentiated.

[7] = molecular target: T7, human MCAM (on transfected cells) (human, UniProt P43121 24-646); test: as above
T7 construct: Cells transfected with human MCAM; also called CD146; MUC18
T7 chain: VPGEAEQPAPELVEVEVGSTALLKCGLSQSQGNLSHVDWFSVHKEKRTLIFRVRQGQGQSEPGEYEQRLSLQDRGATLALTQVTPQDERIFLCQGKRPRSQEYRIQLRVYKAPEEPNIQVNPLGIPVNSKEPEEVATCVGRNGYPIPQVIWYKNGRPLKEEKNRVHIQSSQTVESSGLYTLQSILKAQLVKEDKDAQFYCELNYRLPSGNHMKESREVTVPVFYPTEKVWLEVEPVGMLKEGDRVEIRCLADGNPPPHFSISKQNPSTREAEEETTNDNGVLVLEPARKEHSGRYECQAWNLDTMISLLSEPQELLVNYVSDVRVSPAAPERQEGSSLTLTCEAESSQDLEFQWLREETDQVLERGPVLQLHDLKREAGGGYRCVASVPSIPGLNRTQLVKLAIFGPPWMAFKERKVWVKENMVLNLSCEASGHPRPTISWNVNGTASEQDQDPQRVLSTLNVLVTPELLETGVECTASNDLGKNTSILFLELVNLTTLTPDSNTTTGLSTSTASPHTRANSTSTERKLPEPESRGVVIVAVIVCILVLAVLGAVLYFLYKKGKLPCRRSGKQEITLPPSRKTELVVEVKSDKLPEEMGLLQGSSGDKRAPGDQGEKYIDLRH
Experimental: as §3, §4

[8] = molecular target: T8, murine MCAM-Fc (extracellular domain of murine MCAM fused to human IgG) (mouse, UniProt Q8R2Y2 24-563); test: ForteBio Octet Red, anti-human IgG Fc biosensor loaded with mouse MCAMhFc (5 ug/ml), dipped into clone 17 (5 ug/ml) or SP2 media
T8 construct: extracellular domain; Produced in CHO cells; also called mouse MCAM-Fc protein; full length mouse MCAMhFc protein; not shown: human IgG (Fc) part
T8 sequence (looked up): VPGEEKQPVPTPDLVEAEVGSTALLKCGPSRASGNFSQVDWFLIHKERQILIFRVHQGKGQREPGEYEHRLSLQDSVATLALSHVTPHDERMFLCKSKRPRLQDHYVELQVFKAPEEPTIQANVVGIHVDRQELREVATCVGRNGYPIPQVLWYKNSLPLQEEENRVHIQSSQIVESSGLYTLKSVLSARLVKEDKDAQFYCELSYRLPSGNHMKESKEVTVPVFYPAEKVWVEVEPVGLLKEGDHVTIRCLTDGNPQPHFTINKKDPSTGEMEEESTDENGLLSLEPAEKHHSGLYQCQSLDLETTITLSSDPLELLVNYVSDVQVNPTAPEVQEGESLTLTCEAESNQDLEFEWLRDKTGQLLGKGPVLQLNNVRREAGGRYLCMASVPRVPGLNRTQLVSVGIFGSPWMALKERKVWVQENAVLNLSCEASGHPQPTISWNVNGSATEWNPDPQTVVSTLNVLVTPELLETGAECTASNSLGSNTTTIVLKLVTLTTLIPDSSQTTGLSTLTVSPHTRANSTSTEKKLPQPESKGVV
Text: as §1, §2

- binding result [1]: no binding (tested: 5-175 nM)
- Kd [2]: 60 nM
B1: Recombinant human Fc-tagged MCAM IgG1-2A (Fc fusion)
chain: PRVAGVPGEAEQPAPELVEVEVGSTALLKCGLSQSQGNLSHVDWFSVHKEKRTLIFRVRQGQGQSEPGEYEQRLSLQDRGATLALTQVTPQDERIFLCQGKRPRSQEYRIQLRVYKAPEEPNIQVNPLGIPVNSKEPEEVATCVGRNGYPIPQVIWYKNGRPLKEEKNRVHIQSSQTVESSGLYTLQSILKAQLVKEDKDAQFYCELNYRLPSGNHMKESREVT
notes: also called human MCAM IgG1-2A; MCAM Fc domains 1 and 2; not shown: human Fc tag

- binding result [3]: binds
- binding result [4]: binds
- binding result [5]: no binding (tested: 5 ug/ml)
- binding result [6]: binds
- binding result [7]: binds
- binding result [8]: binds
B2: clone 17 monoclonal antibody (rat anti-MCAM) (antibody, V domains shown)
VH: EVQLVESGGGLVQPGRSLKLSCAASGFTFSNYYMAWVRQAPTKGLEWVASISFEGNRNHYGDSVKGRITISRDNAKSTLYLQMTSLRPEDTATYYCARHRGYSTNFYHDVLDAWGQGALVTVSS
VL: DVQMTQSPSYLATSPGESVSISCKASKNIDTYLAWYQEKPGKTNKLLIYSGSTLQSGTPSRFSGSGSGTDFTLTIRNLESEDFAVYYCQQHNEYPLTFGSGTKLEIKR
notes: Rat monoclonal from a hybridoma (Lou/M rats immunized with murine MCAM-Fc); also called anti-MCAM clone 17
